Test results as given in patent publication US20260008865A1 (TETHEREX PHARMACEUTICALS, published 2026).

How the values were obtained:
[1] = target: T1, SelSP1 (PSGL-1 sulfopeptide); assay: SPR (SensiQ Pioneer), about 2,000 RU SelK2 captured on Protein G, SelSP1 as analyte, 25 °C, 1:1 model
T1 construct: also called sulfopeptide modelled after the N-terminus of human PSGL-1
Experimental: (§1) SensíQ Pioneer (S/N 13110154) was used for all SPR measurements at a controlled temperature of 25° C. SelK2 (Lot #14-2189) was dispensed into three 1 mL aliquots in the biosafety cabinet. Protein G was purchased from BioVision (Cat. #6510). Running buffer for Pioneer contained 10 mM HEPES pH 7.4, 150 mM NaCl, 3.4 mM EDTA and 0.005% Tween-20. All other reagents were purchased from Sigma Aldrich.
(§2) A new COOH2 biosensor was installed and conditioned according to CH0012 protocol. Protein G was immobilized via amine coupling. A mixture containing 0.1M EDC and 0.025M NHS was injected for 4 minutes over flow channel 1 (FC1) and FC2. 50 μg/mL Protein G in 10 mM Sodium acetate buffer pH 4.5 was injected for 15 minutes over FC1 and FC2. 1M Ethanolamine HCl solution pH 8.0 was injected for 5 minutes over FC1 and FC2. Approximately 1,145 response units (RU) of Protein G was coupled on FC1 and FC2 of the sensor chip. 50 nM SelK2 in system buffer was injected to capture approximately 2,000 RU SelK2 on FC1 and 1,000 RU on FC2. […] Each sample was injected for 3 min at a flow rate of 40 μL/min. Dissociation was monitored after each injection for 4 min at the same flow rate. Samples were tested in duplicate from low concentration to high.
(§3) Kinetic model fitting was performed using Qdat analysis software (SensiQ Technologies, Inc. Version 2.5.1.56). A simple 1:1 kinetic model was fit to the data to determine best fit values for association and dissociation rate constants, ka and kd. A local Rmax was fit for each curve to account for incomplete dissociation of the SelSP1 after some of the analyte injections.

[2] = target: T1, SelSP1 (PSGL-1 sulfopeptide); assay: SPR; summary sentence in the description; target printed as PSGL-1, but the worked example used the PSGL-1 sulfopeptide SelSP1
[3] = target: T1, SelSP1 (PSGL-1 sulfopeptide); assay: SPR, captured SelK2, SelSP1 as analyte; value told over the two surface densities
Experimental: as §2, §3

[4] = target: T1, SelSP1 (PSGL-1 sulfopeptide); assay: SPR (SensiQ Pioneer), about 1,000 RU SelK2 captured on Protein G, SelSP1 as analyte, 25 °C, 1:1 model
Experimental: as §1, §2, §3

Kd [1]: 4.29 nM
koff [1]: 0.00218 s⁻¹
kon [1]: 508000 M⁻¹ s⁻¹
fold increase in affinity against the parental antibody [2]: ~4 fold
Kd [3]: 4.28 nM
Kd [4]: 4.27 nM
koff [4]: 0.00232 s⁻¹
kon [4]: 544000 M⁻¹ s⁻¹
B1: SelK2 (antibody, human IgG2, kappa, V domains shown)
VH: QVQLVESGGGVVQPGRSLRLSCAASGFTFSSFGMHWVRQAPGKGLEWVAYISSASSTIYYADTVKGRFTISRDNSKNTLYLQMNSLRAEDTAVYYCASSYGYWGQGTLVTVSS
VL: DIVMTQTPLSLPVTPGEPASISCRSSRSLVHSNGNTYLHWYLQKPGQSPQLLIYKVSNRFSGVPDRFSGSGSGTDFTLKISRVEAEDVGVYYCSQTTHVPLTFGQGTRLEIKR
notes: human kappa light chain; also called SelK2 antibody; humanised anti-PSGL-1 antibody
